Assay results as given in article PMC5489419 (Molecular cell, 2017).

Target: WWP2 N-terminal fragment X (C2 domain, WW1 domain, WW2 domain) of TEV-cleaved WWP2 (human, UniProt O00308 1-395)
Experiment: SEC

B1: WWP2 C-terminal fragment Y (WW3 domain, WW4 domain, HECT domain) of TEV-cleaved WWP2 (domain or fragment)
chain: not shown
Question: Does B1 bind?
Answer: Result: binds
